Each block holds one binder with its values, some of them ahead of it.
Legend:
[1] = target: 441-residue human 2N4R tau (human, UniProt P10636-8 1-441); assay: NMR titration
FKBP51 = target: T1, FKBP51 (UniProt Q13451 1-457); assay: NMR titration
T1 sequence: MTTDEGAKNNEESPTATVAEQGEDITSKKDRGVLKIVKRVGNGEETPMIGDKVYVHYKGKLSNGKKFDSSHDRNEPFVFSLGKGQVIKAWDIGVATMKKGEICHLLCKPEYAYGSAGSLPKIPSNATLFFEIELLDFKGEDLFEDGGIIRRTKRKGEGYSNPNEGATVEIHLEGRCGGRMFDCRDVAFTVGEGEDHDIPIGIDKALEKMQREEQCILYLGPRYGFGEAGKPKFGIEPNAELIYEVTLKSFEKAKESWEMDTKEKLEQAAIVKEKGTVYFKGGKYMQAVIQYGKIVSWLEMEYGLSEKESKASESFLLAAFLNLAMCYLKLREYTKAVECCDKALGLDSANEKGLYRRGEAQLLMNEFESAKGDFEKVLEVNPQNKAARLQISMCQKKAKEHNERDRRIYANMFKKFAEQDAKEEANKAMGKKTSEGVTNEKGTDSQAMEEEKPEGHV

- binding result [1]: binds
B1: p23 (human, wild type) (natural protein)
chain: MQPASAKWYDRRDYVFIEFCVEDSKDVNVNFEKSKLTFSCLGGSDNFKHLNEIDLFHCIDPNDSKHKRTDRSILCCLRKGESGQSWPRLTKERAKLNWLSVDFNNWKDWEDDSDEDMSNFDRFSEMMNNMGGDEDVDLPEVDGADDDSQDSDDEKMPDLE

- binding result (FKBP51): binds
B2: truncated p23 (1-119) (domain or fragment)
chain: MQPASAKWYDRRDYVFIEFCVEDSKDVNVNFEKSKLTFSCLGGSDNFKHLNEIDLFHCIDPNDSKHKRTDRSILCCLRKGESGQSWPRLTKERAKLNWLSVDFNNWKDWEDDSDEDMSN
